Results on one protein are retold here after patent US20140031526A1 (YISSUM RESEARCH DEVELOPMENT COMPANY OF THE HEBREW …, published 2014).

The data set concerns the molecule itself. Kind of data set: FPLC gel filtration before and after sonication (self-association).

B1: 6H-15mer-CBD fusion protein (dragline spider silk 15mer fused to Clostridium cellulovorans CBDclos, with His tags and S-tag) (other)
chain: MHHHHHHSSGLVPRGSGMKETAAAKFERQHMDSPDLGTDDDDKAMASGRGGLGGQGAGAAAAAGGAGQGGYGGLGSQGTSGRGGLGGQGAGAAAAAGGAGQGGYGGLGSQGTSGRGGLGGQGAGAAAAAGGAGQGGYGGLGSQGTSGRGGLGGQGAGAAAAAGGAGQGGYGGLGSQGTSGRGGLGGQGAGAAAAAGGAGQGGYGGLGSQGTSGRGGLGGQGAGAAAAAGGAGQGGYGGLGSQGTSGRGGLGGQGAGAAAAAGGAGQGGYGGLGSQGTSGRGGLGGQGAGAAAAAGGAGQGGYGGLGSQGTSGRGGLGGQGAGAAAAAGGAGQGGYGGLGSQGTSGRGGLGGQGAGAAAAAGGAGQGGYGGLGSQGTSGRGGLGGQGAGAAAAAGGAGQGGYGGLGSQGTSGRGGLGGQGAGAAAAAGGAGQGGYGGLGSQGTSGRGGLGGQGAGAAAAAGGAGQGGYGGLGSQGTSGRGGLGGQGAGAAAAAGGAGQGGYGGLGSQGTSGRGGLGGQGAGAAAAAGGAGQGGYGGLGSQGTSMAATSSMSVEFYNSNKAAQTNSITPIIKITNTADSDLNLNDVKVRYYYTSDGTQGQTFWGDHAGALLGNSYVDNTGKVTANFVKETASPTSTYDTYVEFGFASGAATLKKGQFITIQGRITKSDWSNYAQTNDYSFDASSSTPVVNPKVTGYIGGAKVLGTAPGPDVPSSIINPTSATFDLEHHHHHH
notes: Expressed in E. coli BL21(DE3) from pET30a and purified on Ni-NTA; also called Silk-CBD; 6H-Silk-CBD
For B1, the binding result is recorded as “binds”.
